Experimental data taken from US20250179176A1, “ANTI-TIGIT ANTIBODIES AND USES OF THE SAME” (ARCUS BIOSCIENCES, INC., priority 2022, published 2025).

Tests used:
[1] = in vivo
[2] = Pharmacokinetics of domvanalimab in humans; type: in vivo, human; details: Q2W
Description: The present example illustrates the pharmacokinetics of domvanalimab in human subjects. […] Subjects had ≥1 measurable lesion per RECIST v1.1 and ECOG performance status score 0-1.
Examination of the mean PK plots indicated similar PK across the dosing regimens.

[3] = first cycle, over 20-fold dose range 0.5-10 mg/kg

zimberelimab: antagonistic PD-1 antibody, immune checkpoint inhibitor
Any SAEs Leading to DC [1]: 8 (21) n (%)
Any SAEs Leading to Study Drug Discontinuation [1]: 9 (18.0) n (%)
Any SAEs, events [1]: 30 n
Any SAEs, subjects [1]: 18 (47.4) n (%)
Any TEAEs of Grade 3 or Higher, events [1]: 41 n
Any TEAEs of Grade 3 or Higher, subjects [1]: 20 (52.6) n (%)
Any TEAEs that are immune-related [1]: 24 (48.0) n (%)
Any TEAEs, events [1]: 271 n
Any TEAEs, subjects [1]: 36 (94.7) n (%)
Grade ≥3 TEAE Acute respiratory failure, events [1]: 0 n
Grade ≥3 TEAE Acute respiratory failure, subjects [1]: 0 n (%)
Grade ≥3 TEAE Anaemia, events [1]: 2 n
Grade ≥3 TEAE Anaemia, subjects [1]: 2 (5.3) n (%)
Grade ≥3 TEAE Asthenia, events [1]: 2 n
Grade ≥3 TEAE Asthenia, subjects [1]: 2 (5.3) n (%)
Grade ≥3 TEAE Chronic obstructive pulmonary disease, events [1]: 0 n
Grade ≥3 TEAE Chronic obstructive pulmonary disease, subjects [1]: 0 n (%)
Grade ≥3 TEAE Dyspnoea, events [1]: 3 n
Grade ≥3 TEAE Dyspnoea, subjects [1]: 3 (7.9) n (%)
Grade ≥3 TEAE Fatigue, events [1]: 0 n
Grade ≥3 TEAE Fatigue, subjects [1]: 0 n (%)
Grade ≥3 TEAE Hyperglycaemia, events [1]: 2 n
Grade ≥3 TEAE Hyperglycaemia, subjects [1]: 2 (5.3) n (%)
Grade ≥3 TEAE Hyperkalaemia, events [1]: 0 n
Grade ≥3 TEAE Hyperkalaemia, subjects [1]: 0 n (%)
Grade ≥3 TEAE Hypertension, events [1]: 0 n
Grade ≥3 TEAE Hypertension, subjects [1]: 0 n (%)
Grade ≥3 TEAE Hypokalaemia, events [1]: 3 n
Grade ≥3 TEAE Hypokalaemia, subjects [1]: 3 (7.9) n (%)
Grade ≥3 TEAE Hypoxia, events [1]: 1 n
Grade ≥3 TEAE Hypoxia, subjects [1]: 1 (2.6) n (%)
Grade ≥3 TEAE Myocardial infarction, events [1]: 1 n
Grade ≥3 TEAE Myocardial infarction, subjects [1]: 1 (2.6) n (%)
Grade ≥3 TEAE Pericardial effusion, events [1]: 1 n
Grade ≥3 TEAE Pericardial effusion, subjects [1]: 1 (2.6) n (%)
Grade ≥3 TEAE Pleural effusion, events [1]: 2 n
Grade ≥3 TEAE Pleural effusion, subjects [1]: 2 (5.3) n (%)
Grade ≥3 TEAE Pneumonia, events [1]: 2 n
Grade ≥3 TEAE Pneumonia, subjects [1]: 2 (5.3) n (%)
Grade ≥3 TEAE Pneumonitis, events [1]: 2 n
Grade ≥3 TEAE Pneumonitis, subjects [1]: 2 (5.3) n (%)
Grade ≥3 TEAE Pulmonary embolism, events [1]: 3 n
Grade ≥3 TEAE Pulmonary embolism, subjects [1]: 3 (7.9) n (%)
Grade ≥3 TEAE Respiratory failure, events [1]: 0 n
Grade ≥3 TEAE Respiratory failure, subjects [1]: 0 n (%)
Grade ≥3 TEAE Sepsis, events [1]: 0 n
Grade ≥3 TEAE Sepsis, subjects [1]: 0 n (%)
Grade ≥3 TEAE Septic shock, events [1]: 1 n
Grade ≥3 TEAE Septic shock, subjects [1]: 1 (2.6) n (%)
Grade ≥3 TEAE Spinal compression fracture, events [1]: 2 n
Grade ≥3 TEAE Spinal compression fracture, subjects [1]: 2 (5.3) n (%)
Immune-related TEAE Acute respiratory failure [1]: 0 n (%)
Immune-related TEAE Bronchospasm [1]: 0 n (%)
Immune-related TEAE Bulbar palsy [1]: 0 n (%)
Immune-related TEAE Colitis [1]: 0 n (%)
Immune-related TEAE Contrast media reaction [1]: 1 (2.0) n (%)
Immune-related TEAE Diabetes mellitus [1]: 1 (2.0) n (%)
Immune-related TEAE Diabetic ketoacidosis [1]: 1 (2.0) n (%)
Immune-related TEAE Drug eruption [1]: 1 (2.0) n (%)
Immune-related TEAE Erythema [1]: 1 (2.0) n (%)
Immune-related TEAE Eyelid oedema [1]: 0 n (%)
Immune-related TEAE Flushing [1]: 1 (2.0) n (%)
Immune-related TEAE Generalised oedema [1]: 0 n (%)
Immune-related TEAE Hyperthyroidism [1]: 1 (2.0) n (%)
Immune-related TEAE Hypothyroidism [1]: 4 (8.0) n (%)
Immune-related TEAE Idiopathic urticaria [1]: 0 n (%)
Immune-related TEAE Immune-mediated enterocolitis [1]: 1 (2.0) n (%)
Immune-related TEAE Infusion related reaction [1]: 0 n (%)
Immune-related TEAE Lichen planus [1]: 0 n (%)
Immune-related TEAE Mouth ulceration [1]: 0 n (%)
Immune-related TEAE Myocarditis [1]: 0 n (%)
Immune-related TEAE Myositis [1]: 1 (2.0) n (%)
Immune-related TEAE Pancreatitis [1]: 0 n (%)
Immune-related TEAE Pneumonitis [1]: 7 (14.0) n (%)
Immune-related TEAE Pneumonitis Grade ≥3 [1]: 3 (6) n (%)
Immune-related TEAE Pruritus [1]: 8 (16.0) n (%)
Immune-related TEAE Rash [1]: 6 (12.0) n (%)
Immune-related TEAE Rash maculo-papular [1]: 1 (2.0) n (%)
Immune-related TEAE Rash pustular [1]: 0) n (%)
Immune-related TEAE Respiratory failure [1]: 1 (2.0) n (%)
Immune-related TEAE Rheumatoid arthritis [1]: 0 n (%)
Immune-related TEAE Rhinitis allergic [1]: 0 n (%)
Immune-related TEAE Seasonal allergy [1]: 0 n (%)
Immune-related TEAE Stomatitis [1]: 0 n (%)
Immune-related TEAE Thyroiditis [1]: 0 n (%)
Immune-related TEAE Tracheal obstruction [1]: 0 n (%)
Immune-related TEAE Type I diabetes mellitus [1]: 1 (2.0) n (%)
Immune-related TEAE Urticaria [1]: 0 n (%)
Immune-related TEAE Wheezing [1]: 0 n (%)
Infusion-related reactions [1]: 2 (4) n (%)
Rash [1]: 6 (12) n (%)
SAE Anaemia, events [1]: 0 n
SAE Anaemia, subjects [1]: 0 n (%)
SAE Asthenia, events [1]: 2 n
SAE Asthenia, subjects [1]: 2 (5.3) n (%)
SAE Chronic obstructive pulmonary disease, events [1]: 0 n
SAE Chronic obstructive pulmonary disease, subjects [1]: 0 n (%)
SAE Myocardial infarction, events [1]: 1 n
SAE Myocardial infarction, subjects [1]: 1 (2.6) n (%)
SAE Pleural effusion, events [1]: 3 n
SAE Pleural effusion, subjects [1]: 2 (5.3) n (%)
SAE Pneumonia, events [1]: 2 n
SAE Pneumonia, subjects [1]: 2 (5.3) n (%)
SAE Pneumonitis, events [1]: 1 n
SAE Pneumonitis, subjects [1]: 1 (2.6) n (%)
SAE Pulmonary embolism, events [1]: 3 n
SAE Pulmonary embolism, subjects [1]: 3 (7.9) n (%)
SAE Septic shock, events [1]: 1 n
SAE Septic shock, subjects [1]: 1 (2.6) n (%)
SAE Spinal compression fracture, events [1]: 2 n
SAE Spinal compression fracture, subjects [1]: 2 (5.3) n (%)
TEAE Constipation, events [1]: 6 n
TEAE Constipation, subjects [1]: 4 (10.5) n (%)
TEAE Decreased appetite, events [1]: 6 n
TEAE Decreased appetite, subjects [1]: 6 (15.8) n (%)
TEAE Diarrhoea, events [1]: 7 n
TEAE Diarrhoea, subjects [1]: 6 (15.8) n (%)
TEAE Dyspnoea, events [1]: 9 n
TEAE Dyspnoea, subjects [1]: 7 (18.4) n (%)
TEAE Fatiguc, events [1]: 11 n
TEAE Fatiguc, subjects [1]: 11 (28.9) n (%)
TEAE Nausea, events [1]: 7 n
TEAE Nausea, subjects [1]: 7 (18.4) n (%)
TEAE Pneumonia, events [1]: 2 n
TEAE Pneumonia, subjects [1]: 2 (5.3) n (%)
TEAE Pneumonitis, events [1]: 7 n
TEAE Pneumonitis, subjects [1]: 6 (15.8) n (%)
TEAE Pruritus, events [1]: 6 n
TEAE Pruritus, subjects [1]: 6 (15.8) n (%)
TEAE Pyrexia, events [1]: 4 n
TEAE Pyrexia, subjects [1]: 4 (10.5) n (%)
TEAE Rash, events [1]: 8 n
TEAE Rash, subjects [1]: 3 (7.9) n (%)
TEAE Vomiting, events [1]: 3 n
TEAE Vomiting, subjects [1]: 3 (7.9) n (%)
TEAEs leading to study drug mod. int. [1]: 12 (24.0) n (%)
TEAEs leading to study drug mod. int., related to study treatment [1]: 7 (14.0) n (%)
TEAEs leading to zim discon., related to zim [1]: 9 (18.0) n (%)
TEAEs leading to zim mod./int., related to zim [1]: 7 (14.0) n (%)
grade 3 treatment-emergent adverse events [1]: 58%
tolerability [1]: well tolerated

B1: domvanalimab: anti-TIGIT antibody with engineered IgG1 Fc, reduced FcγR binding; heavy chain SEQ ID NO: 12, light chain SEQ ID NO: 13 (antibody)
heavy: EVQLVESGGGLVQPGGSLRLSCAASGFTFSNFGMHWVRQAPGKGLEWVAFISSGSSSIYYADTVKGRFTISRDNAKNSLYLQMNSLRAEDTAVYYCARMRLDYYAMDYWGQGTMVTVSSASTKGPSVFPLAPSSKSTSGGTAALGCLVKDYFPEPVTVSWNSGALTSGVHTFPAVLQSSGLYSLSSVVTVPSSSLGTQTYICNVNHKPSNTKVDKKVEPKSCDKTHTCPPCPAPEAAGGPSVFLFPPKPKDTLMISRTPEVTCWVDVSHEDPEVKFNWYVDGVEVHNAKTKPREEQYNSTYRWSVLTVLHQDWLNGKEYKCKVSNKALPAPIEKTISKAKGQPREPQVYTLPPSRDELTKNQVSLTCLVKGFYPSDIAVEWESNGQPENNYKTTPPVLDSDGSFFLYSKLTVDKSRWQQGNVFSCSVMHEALHNHYTQKSLSLSPGK
light: DIQMTQSPSSLSASVGDRVTITCRASKSISKYLAWYQQKPGKAPKLLIYSGSTLQSGVPSRFSGSGSGTDFTLTISSLQPEDFATYYCQQHNEYPWTFGGGTKVEIKRTVAAPSVFIFPPSDEQLKSGTASWCLLNNFYPREAKVQWKVDNALQSGNSQESVTEQDSKDSTYSLSSTLTLSKADYEKHKVYACEVTHQGLSSPVTKSFNRGEC
dose proportionality of PK ([2]; 0.5-10 mg/kg): roughly dose proportional
increase of concentration at end of infusion (Ceoinf) [2, 3]: 15 fold
increase of concentration at the end of the dosing interval (Ctrough) [2, 3]: 27 fold
increase of mean area under the concentration time curve over the first dosage interval [2, 3]: 17 fold
